The target in the test is TSH β-subunit (human, UniProt P01222 21-132, N-linked glycan (one)). The test is described as follows: cryo-EM structure.
Sequence of TSH β-subunit (P01222 21-132): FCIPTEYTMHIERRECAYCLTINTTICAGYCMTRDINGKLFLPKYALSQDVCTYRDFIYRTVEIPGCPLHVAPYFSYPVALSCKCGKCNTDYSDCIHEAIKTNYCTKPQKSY

B1: TSH α-subunit (natural protein)
chain: not shown
modifications: N-linked glycans (two, one at N52)
Consider B1, for which the binding result is “binds”.
